Assay results published in article PMC11574045, “A cofactor-induced repressive type of transcription factor condensation can be induced by synthetic peptides to suppress tumorigenesis” (The EMBO Journal, 2024).

B1: ZBTB5 (protein, UniProt O15062 1-677, looked up)
Zinc finger and BTB …: MDFPGHFEQIFQQLNYQRLHGQLCDCVIVVGNRHFKAHRSVLAACSTHFRALFSVAEGDQTMNMIQLDSEVVTAEAFAALIDMMYTSTLMLGESNVMDVLLAASHLHLNSVVKACKHYLTTRTLPMSPPSERVQEQSARMQRSFMLQQLGLSIVSSALNSSQNGEEQPAPMSSSMRSNLDQRTPFPMRRLHKRKQSAEERARQRLRPSIDESAISDVTPENGPSGVHSREEFFSPDSLKIVDNPKADGMTDNQEDSAIMFDQSFGTQEDAQVPSQSDNSAGNMAQLSMASRATQVETSFDQEAAPEKSSFQCENPEVGLGEKEHMRVVVKSEPLSSPEPQDEVSDVTSQAEGSESVEVEGVVVSAEKIDLSPESSDRSFSDPQSSTDRVGDIHILEVTNNLEHKSTFSISNFLNKSRGNNFTANQNNDDNIPNTTSDCRLESEAPYLLSPEAGPAGGPSSAPGSHVENPFSEPADSHFVRPMQEVMGLPCVQTSGYQGGEQFGMDFSRSGLGLHSSFSRVMIGSPRGGASNFPYYRRIAPKMPVVTSVRSSQIPENSTSSQLMMNGATSSFENGHPSQPGPPQLTRASADVLSKCKKALSEHNVLVVEGARKYACKICCKTFLTLTDCKKHIRVHTGEKPYACLKCGKRFSQSSHLYKHSKTTCLRWQSSNLPSTLL
B2: C1QBP (protein, UniProt Q07021 74-282, looked up)
Complement component 1 Q …: LHTDGDKAFVDFLSDEIKEERKIQKHKTLPKMSGGWELELNGTEAKLVRKVAGEKITVTFNINNSIPPTFDGEEEPSQGQKVEEQEPELTSTPNFVVEVIKNDDGKKALVLDCHYPEDEVGQEDEAESDIFSIREVSFQSTGESEWKDTNYTLNTDSLDWALYDHLMDFLADRGVDNTFADELVELSTALEHQEYITFLEDLKSFVKSQ
B3: ZBTB48 (protein, UniProt P10074 1-688, looked up)
Zinc finger and BTB …: MDGSFVQHSVRVLQELNKQREKGQYCDATLDVGGLVFKAHWSVLACCSHFFQSLYGDGSGGSVVLPAGFAEIFGLLLDFFYTGHLALTSGNRDQVLLAARELRVPEAVELCQSFKPKTSVGQAAGGQSGLGPPASQNVNSHVKEPAGLEEEEVSRTLGLVPRDQEPRGSHSPQRPQLHSPAQSEGPSSLCGKLKQALKPCPLEDKKPEDCKVPPRPLEAEGAQLQGGSNEWEVVVQVEDDGDGDYMSEPEAVLTRRKSNVIRKPCAAEPALSAGSLAAEPAENRKGTAVPVECPTCHKKFLSKYYLKVHNRKHTGEKPFECPKCGKCYFRKENLLEHEARNCMNRSEQVFTCSVCQETFRRRMELRVHMVSHTGEMPYKCSSCSQQFMQKKDLQSHMIKLHGAPKPHACPTCAKCFLSRTELQLHEAFKHRGEKLFVCEECGHRASSRNGLQMHIKAKHRNERPHVCEFCSHAFTQKANLNMHLRTHTGEKPFQCHLCGKTFRTQASLDKHNRTHTGERPFSCEFCEQRFTEKGPLLRHVASRHQEGRPHFCQICGKTFKAVEQLRVHVRRHKGVRKFECTECGYKFTRQAHLRRHMEIHDRVENYNPRQRKLRNLIIEDEKMVVVALQPPAELEVGSAEVIVESLAQGGLASQLPGQRLCAEESFTGPGVLEPSLIITAAVPEDCDT
B4: ZBTB6 (protein, UniProt Q15916 1-424, looked up)
Zinc finger and BTB …: MAAESDVLHFQFEQQGDVVLQKMNLLRQQNLFCDVSIYINDTEFQGHKVILAACSTFMRDQFLLTQSKHVRITILQSAEVGRKLLLSCYTGALEVKRKELLKYLTAASYLQMVHIVEKCTEALSKYLEIDLSMKNNNQHTDLCQSSDPDVKNEDENSDKDCEIIEISEDSPVNIDFHVKEEESNALQSTVESLTSERKEMKSPELSTVDIGFKDNEICILHVESISTAGVENGQFSQPCTSSKASMYFSETQHSLINSTVESRVAEVPGNQDQGLFCENTEGSYGTVSEIQNLEEGYSLRHQCPRCPRGFLHVENYLRHLKMHKLFLCLQCGKTFTQKKNLNRHIRGHMGIRPFQCTVCLKTFTAKSTLQDHLNIHSGDRPYKCHCCDMDFKHKSALKKHLTSVHGRSSGEKLSRPDLKRQSLL
B5: ZEB2 (protein, UniProt O60315 1-1214, looked up)
Zinc finger E-box-binding …: MKQPIMADGPRCKRRKQANPRRKNVVNYDNVVDTGSETDEEDKLHIAEDDGIANPLDQETSPASVPNHESSPHVSQALLPREEEEDEIREGGVEHPWHNNEILQASVDGPEEMKEDYDTMGPEATIQTAINNGTVKNANCTSDFEEYFAKRKLEERDGHAVSIEEYLQRSDTAIIYPEAPEELSRLGTPEANGQEENDLPPGTPDAFAQLLTCPYCDRGYKRLTSLKEHIKYRHEKNEENFSCPLCSYTFAYRTQLERHMVTHKPGTDQHQMLTQGAGNRKFKCTECGKAFKYKHHLKEHLRIHSGEKPYECPNCKKRFSHSGSYSSHISSKKCIGLISVNGRMRNNIKTGSSPNSVSSSPTNSAITQLRNKLENGKPLSMSEQTGLLKIKTEPLDFNDYKVLMATHGFSGTSPFMNGGLGATSPLGVHPSAQSPMQHLGVGMEAPLLGFPTMNSNLSEVQKVLQIVDNTVSRQKMDCKAEEISKLKGYHMKDPCSQPEEQGVTSPNIPPVGLPVVSHNGATKSIIDYTLEKVNEAKACLQSLTTDSRRQISNIKKEKLRTLIDLVTDDKMIENHNISTPFSCQFCKESFPGPIPLHQHERYLCKMNEEIKAVLQPHENIVPNKAGVFVDNKALLLSSVLSEKGMTSPINPYKDHMSVLKAYYAMNMEPNSDELLKISIAVGLPQEFVKEWFEQRKVYQYSNSRSPSLERSSKPLAPNSNPPTKDSLLPRSPVKPMDSITSPSIAELHNSVTNCDPPLRLTKPSHFTNIKPVEKLDHSRSNTPSPLNLSSTSSKNSHSSSYTPNSFSSEELQAEPLDLSLPKQMKEPKSIIATKNKTKASSISLDHNSVSSSSENSDEPLNLTFIKKEFSNSNNLDNKSTNPVFSMNPFSAKPLYTALPPQSAFPPATFMPPVQTSIPGLRPYPGLDQMSFLPHMAYTYPTGAATFADMQQRRKYQRKQGFQGELLDGAQDYMSGLDDMTDSDSCLSRKKIKKTESGMYACDLCDKTFQKSSSLLRHKYEHTGKRPHQCQICKKAFKHKHHLIEHSRLHSGEKPYQCDKCGKRFSHSGSYSQHMNHRYSYCKREAEEREAAEREAREKGHLEPTELLMNRAYLQSITPQGYSDSEERESMPRDGESEKEHEKEGEDGYGKLGRQDGDEEFEEEEEESENKSMDTDPETIRDEEETGDHSMDDSSEDGKMETKSDHEEDNMEDGM
B6: ZDHHC18 (protein, UniProt Q9NUE0 1-388, looked up)
Palmitoyltransferase ZDHHC18: MKDCEYQQISPGAAPLPASPGARRPGPAASPTPGPGPAPPAAPAPPRWSSSGSGSGSGSGSLGRRPRRKWEVFPGRNRFYCGGRLMLAGHGGVFALTLLLILTTTGLFFVFDCPYLARKLTLAIPIIAAILFFFVMSCLLQTSFTDPGILPRATVCEAAALEKQIDNTGSSTYRPPPRTREVLINGQMVKLKYCFTCKMFRPPRTSHCSVCDNCVERFDHHCPWVGNCVGRRNYRFFYAFILSLSFLTAFIFACVVTHLTLRAQGSNFLSTLKETPASVLELVICFFSIWSILGLSGFHTYLVASNLTTNEDIKGSWSSKRGGEASVNPYSHKSIITNCCAVLCGPLPPSLIDRRGFVQSDTVLPSPIRSDEPACRAKPDASMVGGHP
B7: ZBTB44 (protein, UniProt Q8NCP5 1-570, looked up)
Zinc finger and BTB …: MGVKTFTHSSSSHSQEMLGKLNMLRNDGHFCDITIRVQDKIFRAHKVVLAACSDFFRTKLVGQAEDENKNVLDLHHVTVTGFIPLLEYAYTATLSINTENIIDVLAAASYMQMFSVASTCSEFMKSSILWNTPNSQPEKGLDAGQENNSNCNFTSRDGSISPVSSECSVVERTIPVCRESRRKRKSYIVMSPESPVKCGTQTSSPQVLNSSASYSENRNQPVDSSLAFPWTFPFGIDRRIQPEKVKQAENTRTLELPGPSETGRRMADYVTCESTKTTLPLGTEEDVRVKVERLSDEEVHEEVSQPVSASQSSLSDQQTVPGSEQVQEDLLISPQSSSIGSVDEGVSEGLPTLQSTSSTNAPPDDDDRLENVQYPYQLYIAPSTSSTERPSPNGPDRPFQCPTCGVRFTRIQNLKQHMLIHSGIKPFQCDRCGKKFTRAYSLKMHRLKHEGKRCFRCQICSATFTSFGEYKHHMRVSRHIIRKPRIYECKTCGAMFTNSGNLIVHLRSLNHEASELANYFQSSDFLVPDYLNQEQEETLVQYDLGEHGFESNSSVQMPVISQYHSKGKEP

System: HEK293FT cells transfected with TF library
Assay: Screening of TF condensates based on fluorescent puncta
Type: cell-based
Conditions: Figure 1B numerical data; TF library screen, one value per transcriptional factor
Method in brief: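 HEK293FT, PEI transfection of TF library, 60 h; ±glucose 12 h; 4% PFA fix, 0.05% Triton X-100 permeabilization, 5% BSA block; anti-Flag/anti-GAL4 overnight at 4 °C, Alexa 488 secondary 1 h; high-content imaging, 50 fields/well.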

Molecule | Z score of condensed fraction
B1 | -0.7904
B2 | 2.537
B3 | 0.7506
B4 | -0.2886
B5 | -0.2398
B6 | -0.2463
B7 | -0.608
